Kd data for 37 molecules are collected here from US20250188189A1 (published 2025).

T1: plasma-derived human activated protein C (APC) (UniProt P04070 43-461)
T1 chain: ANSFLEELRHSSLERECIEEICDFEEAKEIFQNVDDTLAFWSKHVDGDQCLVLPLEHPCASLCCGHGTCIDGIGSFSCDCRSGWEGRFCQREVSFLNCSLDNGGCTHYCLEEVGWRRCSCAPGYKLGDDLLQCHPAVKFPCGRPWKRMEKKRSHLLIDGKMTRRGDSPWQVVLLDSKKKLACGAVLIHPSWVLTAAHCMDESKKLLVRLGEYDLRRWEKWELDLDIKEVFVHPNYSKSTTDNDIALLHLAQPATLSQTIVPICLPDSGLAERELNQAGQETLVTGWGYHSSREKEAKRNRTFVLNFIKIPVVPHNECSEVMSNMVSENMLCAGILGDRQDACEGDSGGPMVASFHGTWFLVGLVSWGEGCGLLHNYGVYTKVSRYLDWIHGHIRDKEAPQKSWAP

B1: TPP-24847 (antibody, V domains shown)
VL: DIVLTQSPASLAVSPGQRATITCKASQSVSSFGATFMHWYLQKPGQSPQLLIYLASNLESGVPARFSGSGSGTDFTLTINPVEADDTANYYCQQNNEDPYTFGQGTKLEIK
B2: TPP-24851 (antibody, V domains shown)
VL: B1 VL with L58R, E59A, A64D
B3: TPP-24843 (antibody, V domains shown)
VL: B1 VL with L41Q, S47P, Q49K, L58R, E59A, A64D
B4: TPP-24841 (antibody, V domains shown)
VL: B1 VL with L41Q, S47P, Q49K, T78K, N80S, P81R, D85E, T87V, A88G, N89V
B5: TPP-24853 (antibody, V domains shown)
VL: B1 VL with L58R, E59A, A64D, T78K, N80S, P81R, D85E, T87V, A88G, N89V
B6: TPP-24913 (antibody, V domains shown)
VL: EIVLTQSPGTLSLSPGERATLSCRASQSVSSFGATFMHWYLQKPGQSPQLLIYLASNLESGVPARFSGSGSGTDFTLKISRVEAEDVGVYYCQQNNEDPYTFGQGTKLEIK
B7: TPP-24901 (antibody, V domains shown)
VL: B6 VL with Q27E, S30D, L58R, E59A, A64D
B8: TPP-24917 (antibody, V domains shown)
VL: B6 VL with L58R, E59A, A64D
B9: TPP-24909 (antibody, V domains shown)
VL: B6 VL with L41Q, S47P, Q49K, L58R, E59A, A64D
B10: TPP-24911 (antibody, V domains shown)
VL: B6 VL with K78T, S80N, R81P, E85D, V87T, G88A, V89N
B11: TPP-24893 (antibody, V domains shown)
VL: B6 VL with Q27E, S30D, L41Q, S47P, Q49K, L58R, E59A, A64D
B12: TPP-24869 (antibody, V domains shown)
VL: DIVMTQSPLSLPVTPGEPASISCRSSESVDSFGATFMHWYLQKPGQSPQLLIYLASNRASGVPDRFSGSGSGTDFTLKISRVEAEDVGVYYCQQNNEDPYTFGQGTKLEIK
B13: TPP-24875 (antibody, V domains shown)
VL: DIVMTQSPLSLPVTPGEPASISCRSSQSVSSFGATFMHWYQQKPGQPPKLLIYLASNRASGVPDRFSGSGSGTDFTLTINPVEADDTANYYCQQNNEDPYTFGQGTKLEIK
B14: TPP-24829 (antibody, V domains shown)
VL: DIVLTQSPASLAVSPGQRATITCKASESVDSFGATFMHWYQQKPGQPPKLLIYLASNRASGVPDRFSGSGSGTDFTLKISRVEAEDVGVYYCQQNNEDPYTFGQGTKLEIK
B15: TPP-29845 (antibody, V domains shown)
VH: EVQLVESGGGLVQPGGSLRLSCAASGFTFSNFYMNWVRQAPGKGLEWVSYISSSSSTIYYADSVKGRFTISRDDSKNSLYLQMNSLKTEDTAVYYCAREGDYFDYWGQGTLVTVSS
VL: EIVLTQSPGTLSLSPGERATLSCRASQSVSSFGATFMHWYQQKPGQPPKLLIYLASNRASGVPDRFSGSGSGTDFTLKISRVEAEDVGVYYCQQNNEDPYTFGQGTKLEIKR
B16: TPP-29866 (antibody, V domains shown)
VH: B15 VH with F32Y, T57P
VL: B15 VL
B17: TPP-29844 (antibody, V domains shown)
VH: B15 VH with N31I, F32Y
VL: B15 VL
B18: TPP-29846 (antibody, V domains shown)
VH: B15 VH with N31P, F32Y
VL: B15 VL
B19: TPP-29848 (antibody, V domains shown)
VH: B15 VH with F32Y
VL: B15 VL with Q27E
B20: TPP-29860 (antibody, V domains shown)
VH: B15 VH with F32Y
VL: B15 VL with Q93T
B21: TPP-29850 (antibody, V domains shown)
VH: B15 VH with F32Y
VL: B15 VL with N57W
B22: TPP-26922 (antibody, V domains shown)
VH: EVQLVESGGGLVQPGGSLRLSCAASGFTFSNYYMSWVRQAPGKGLEWVGDIRLKSNNYEKHYAESVKGRFTISRDDSKNSLYLQMNSLKTEDTAVYYCAREGDYFDYWGQGTLVTVSS
VL: B15 VL
B23: TPP-29856 (antibody, V domains shown)
VH: B15 VH with F32Y
VL: B15 VL with N57H
B24: TPP-29853 (antibody, V domains shown)
VH: B15 VH with F32Y, F103M
VL: B15 VL
B25: TPP-29852 (antibody, V domains shown)
VH: B15 VH with N31F, F32Y
VL: B15 VL
B26: TPP-26939 (antibody, V domains shown)
VH: B22 VH with M34I, S35N
VL: B15 VL with E1D, G9A, T10S, S12A, L13V, E17Q, L21I, S22T, R24K
B27: TPP-29863 (antibody, V domains shown)
VH: B15 VH with F32Y
VL: B15 VL with S28R
B28: TPP-29847 (antibody, V domains shown)
VH: B15 VH with F32Y
VL: B15 VL with Y100F
B29: TPP-29854 (antibody, V domains shown)
VH: B15 VH with F32Y
VL: B15 VL with A55K
B30: TPP-29865 (antibody, V domains shown)
VH: B15 VH with F32Y, M34F
VL: B15 VL
B31: TPP-29864 (antibody, V domains shown)
VH: B15 VH with F32Y
VL: B15 VL with N57R
B32: TPP-29855 (antibody, V domains shown)
VH: B15 VH with F32Y, S54R
VL: B15 VL
B33: TPP-29861 (antibody, V domains shown)
VH: B15 VH with F32Y, S56R
VL: B15 VL
B34: TPP-29858 (antibody, V domains shown)
VH: B15 VH with F32Y
VL: B15 VL with S56R
B35: TPP-29849 (antibody, V domains shown)
VH: B15 VH with F32Y
VL: B15 VL with S56W
B36: TPP-29857 (antibody, V domains shown)
VH: B15 VH with F32Y
VL: B15 VL with Y100W
B37: TPP-29843 (antibody, V domains shown)
VH: B15 VH with F32Y, S53T
VL: B15 VL

Where a chain is given by its changes, count along the chain named.

One assay has as its target T1, plasma-derived human activated protein …. In words: SPR. (SPR reads the build-up and loss of mass on a sensor chip optically.)
For orientation: Kd means the equilibrium constant for the complex coming apart. As to B1, the Kd turned out to be 0.0855 µM.
On to B2, for which the affinity, expressed as Kd, was 0.0498 µM.
Molecule B3 displayed a dissociation constant (Kd) of 0.0486 µM.
The molecule B4 returned a Kd of 0.0932 µM.
As for B5, the equilibrium dissociation constant (Kd) is 0.0515 µM.
The molecule B6 returned a Kd of 0.0856 µM.
Consider B7, for which binding was put at a Kd of 0.0269 µM.
Consider B8, for which the equilibrium dissociation constant (Kd) is 0.0446 µM.
Molecule B9 came in with a Kd of 0.0462 µM.
The molecule B10 displayed a Kd of 0.0432 µM.
In turn, B11 displayed a Kd of 0.0286 µM.
B12 gave a Kd of 0.0242 µM.
In the case of B13, the affinity, expressed as Kd, was 0.0477 µM.
B14 had a Kd of 0.0313 µM.

For a further assay the target is unchanged. The assay can be described thus: SPR; head prints nM; kd/ka gives M.
B15 gave a Kd of 0.0107 µM.
B16 came in with a Kd of 0.0222 µM.
On the same count and under the same terms, the value for B17 was 0.0101 µM; that for B18 was 0.00637 µM.
Regarding B19, the Kd came out at 0.0162 µM.
Consider B20, for which binding was characterised by a dissociation constant (Kd) of 0.0239 µM.
Take B21: binding was put at a Kd of 0.00313 µM.
Take B22: the Kd came to 0.0917 µM.
In the case of B23, the Kd is 0.0213 µM.
With B24, the Kd was determined as 0.0233 µM.
Same read-out and setting: the value for B25 was 0.00118 µM; that for B26 was 0.0521 µM; that for B27 was 0.0238 µM.
As for B28, binding was characterised by a dissociation constant (Kd) of 0.00833 µM.
In turn, B29 returned a Kd of 0.0252 µM.
B30: the Kd came to 0.0127 µM.
In turn, B31 returned a Kd of 0.0104 µM.
The molecule B32 returned a Kd of 0.0261 µM.
The same measure, in the same setting: the value for B33 was 0.0113 µM.
B34 returned a Kd of 0.0249 µM.
On to B35, for which the equilibrium dissociation constant (Kd) turned out to be 0.0102 µM.
Still for that read-out and setting: the value for B36 was 0.0133 µM.
B37 returned a Kd of 0.0223 µM.
